According to the supplement of paper PMC9170038:

Test system: MS2 coat protein
Assay: apparent KD of MS2 coat protein; higher = weaker reporter binding
Settings: Eterna round: R107; input ligand: arginine 13.2 mM
Summary of the method: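 In 100 mM Tris-HCl pH 7.5 with 80 mM KCl and 4 mM MgCl2, and without or with constant ligand, SNAP-549-labelled MS2 coat protein was titrated in twofold steps from 0.7 or 1.5 nM to 3 µM. Per-step times went from 0.8–1.5 h down to 10–20 min. The RNA switches were transcribed on-chip from Illumina sequencing clusters, and apparent KD is the per-design median of normalised cluster binding-curve fits.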

Sequence	apparent KD of MS2 coat protein [nM]
UGUCAGCGAAAGUUGACAUGCAGUGCCGGUCGAGGACCGGUACGGCCGCCACUCGAUCUCUCGUACAUGAGGAUCACCCAUGUCG [SS Tryp A #19]	14.4
AGUAUCAGUGGAAGGAGCGUCGCGACUGCUACAUGAGGAUCACCCAUGUCGCCUUGAGCGCGACAGGUAGGUCGCCACGGUAGGC [SS-ArgB1]	28.6
AAUAAUAAGAAUAACGUACCAGGUGAUCAACGAGGACCGGUACGGCCGCCACUCGAAACAUGAGGAUCACCCAUGUAAUAACAAU [|T'-M'-Trp-Ms2|_Design 2_OL]	39.7
AAAUAAAUACAUGAGGAUCACCCAUGUGAAGGAGCGGCCGUUAGGCCAGGUAGGUCGCACAUGAAAGGGAAGCGAAAGAAAUAAU [MAT - Exclusion Arginine A - Mod of Eli - D7]	12.2
UGGUACUAGGCGGCCGCCACUGGGUGAUACAUGAGGAUCACCCAUGUUUAAUGCCGAGAGGCAACUAGGACCGGGCCUAGUACAU	101
GUCCUAAGGUCGGCCGCCACUGUAGAGUGUGAGCCAUCACAUGAGGAUCACCCAUGUUGUUGCUAUAGGACCGGGAUUGUAGGAC [#22 Exclusion Tryptophan B]	13.5
UGGAGUAGGACGGCCGCCACUAUACAAUGUGUAUACAUGAGGAUCACCCAUGUAAUCCUCGGAGAUAGGACCGGGUCAAGUUGUG [X-tryptB-ms2@35]	39.4
CCUCAAUCGUCGGCCGCCACUGAAUCAUGCGGAUACAUGAGGAUCACCCAUGUGGGUGUGGUACGCAGGACCGGGACAAGACCCG [#14 Same State - Tryptophan B]	154
GAGACAUGAGGAUCACCCAUGUUAGAUGAUACCAGUUAGAGAAGGAGCCCUUGGCAGCGUAAAUCUAGAGCCUAUGACGACAUGU [ss-theoA-1]	16.2
ACAUGAGGAUCACCCAUGUGCCGUCUUGAUACCAGACCCGAAGUAGUCCCUUGGCAGCAACUACGUGACGGUCGCGCAUGUGUAG [kaomullin]	16.3
GAUACUAUGAAAGUAGUAUCUACGUGUUGACGAGGACCGGUACGGCCGCCACUCGACAUGAGGAUCACCCAUGUAUAGAAUAUGU [TrypA_2]	25.1
ACAUGAGGAUCACCCAUGUCACGGCACGAUACCAGCUGAUCCGGUGGCCCUUGGCAGCGUGACGUUUGGUCCCGCGGAUCACACG [semullin]	40
UAACAUGAGGAUCACCCAUGUUUAGAUGAACGAGGACCGGUACGGCCGCCACUCGAUAAGUGGCAAGAACGAGGGAUUGUAUGCU [Same State Trp A GF3]	12.7
AAGGUGAUCCGUGAUACCAGCUCAACAUGAGGAUCACCCAUGUAACGGACGAAAGUCCGGAGCCCUUGGCAGCACGGUAAUAAUA [(M)'-(Theo1)-(Ms2)-(Theo2)-(M'')_Design2b]	10.4
ACAUGAGGACCGGAUACCAGCCACACAACAUGAGGAUCACCCAUGUCCCAUGUAUGAGGAGGCCCUUGGCAGCCGACAUACAUGA [Exclusion - Theophylline B #1]	48.2
GGGUGGUAGGCGGCCGCCACUGAUUUUUAUUUAUAGAUGACAUGAGGAUCACCCAUGUUGAUAUGCAGGACCGGGCCUGUUGUUG [aaaP]	10.9
CCUAUCCAGUCGGCCGCCACUGAAAACAGUGGGUGAACAUGAGGAUCACCCAUGUCGGAAUACCGCAGGACCGGGACUGUAUAGG [Ex Tryptophan B 23]	162
AGCGAUAUGCAUGAUACCAGCUACAUGAGGAUCACCCAUGUGCGUCAGAAAUGACUGUGUAGCCCUUGGCAGCAUAGAGCAUGUA [Exclusion - Theophylline B (Freestyle 11)]	35.2
UCAUACAUGAGGAUCACCCAUGUUCGUGGGCGAGGACCGGUACGGCCGCCACUCGUACUAACGGUUUCUUAAACUUCCUUUCGAG [theeternabot_sameState_MS2_Trp_A_49]	28.3
AGCGACAUGCAUGAUACCAGCUACAUGAGGAUCACCCAUGUACGUCAGUAAUGACUGUGUAGCCCUUGGCAGCAUAAAGCAUGUC [Exclusion - Theophylline B (Freestyle 17)]	22.8
GACAGACGAGGAAGGAGCGACAUGAGGAUCACCCAUGUUGCGGGUUUAAGGUGAACUAAGUGUCAGGUAGGUCGCCUCGCUUUUA [Diatbeat]	35.7
UAUCGUCAGACGGCCGCCACUAGAACAUGAGGAUCACCCAUGUAGGUCCUAGAUUCCUCAAUAACUAGGACCGGGUCUGACGAAU [(Trp1)-(Ms2)-(T)'-(M)'-(Trp2)_Design14]	81.8
AAGGUGAUCCCAGAUACCAGCUUAACAUGAGGAUCACCCAUGUAUGGGACGAAAGUCCCGGGCCCUUGGCAGCUGGGUUGCCAAG [SSTheo B #16]	43.6
GGAUAGGACACGGCCGCCACUAGCUAGGAUACUAGCAACAUUUCCUCAUCUGAGGAUCACCCAGGUAGGACCGGGUGUCCUAUCG	172
UCUGGGUCCGCAAGGACCUGGAGUUGCGAUACCAGCACGGUAACGUGCCCUUGGCAGCGCACAUGAGGAUCACCCAUGUGGUGUU [#1 Exclusion - Theophylline A Attempt #17 (HarryS)]	86.6
AUAAUAAUGUCGGCCGCCACUAUAAACAUGAGGAACAUGAGGAUCACCCAUGUAUGAGGAUCACCUAGGACCGGGACUAAUAUUA [AstrosExyTryB#5]	33.9
AUAUGAUCAUGGGAUACCAGAAAUGGUAUUCCUUUAUUUCUUACAUGAGGAUCACCCAUGUUCCCUUGGCAGCUUAUGAUCAUAU [ETHB #5]	53.7
AACAUGAGGAUCACCCAUGUGUCCUCGAAACGAGGACCGGUACGGCCGCCACUCGGCGUAUGUUGACGAAAAGUCAGCAUACGCA [Mat - Exclusion - Trytophan A - D11]	81.8

Same assay, conditions: Eterna round: R107; input ligand: none

Sequence	apparent KD of MS2 coat protein [nM]
AGUAUCAGUGGAAGGAGCGUCGCGACUGCUACAUGAGGAUCACCCAUGUCGCCUUGAGCGCGACAGGUAGGUCGCCACGGUAGGC [SS-ArgB1]	49.6
AAAUAAAUACAUGAGGAUCACCCAUGUGAAGGAGCGGCCGUUAGGCCAGGUAGGUCGCACAUGAAAGGGAAGCGAAAGAAAUAAU [MAT - Exclusion Arginine A - Mod of Eli - D7]	18.1
CCUCAAUCGUCGGCCGCCACUGAAUCAUGCGGAUACAUGAGGAUCACCCAUGUGGGUGUGGUACGCAGGACCGGGACAAGACCCG [#14 Same State - Tryptophan B]	203
UAACAUGAGGAUCACCCAUGUUUAGAUGAACGAGGACCGGUACGGCCGCCACUCGAUAAGUGGCAAGAACGAGGGAUUGUAUGCU [Same State Trp A GF3]	13.8
ACAUGAGGACCGGAUACCAGCCACACAACAUGAGGAUCACCCAUGUCCCAUGUAUGAGGAGGCCCUUGGCAGCCGACAUACAUGA [Exclusion - Theophylline B #1]	77.3
CCUAUCCAGUCGGCCGCCACUGAAAACAGUGGGUGAACAUGAGGAUCACCCAUGUCGGAAUACCGCAGGACCGGGACUGUAUAGG [Ex Tryptophan B 23]	143
GACAGACGAGGAAGGAGCGACAUGAGGAUCACCCAUGUUGCGGGUUUAAGGUGAACUAAGUGUCAGGUAGGUCGCCUCGCUUUUA [Diatbeat]	41.2
AAGGUGAUCCCAGAUACCAGCUUAACAUGAGGAUCACCCAUGUAUGGGACGAAAGUCCCGGGCCCUUGGCAGCUGGGUUGCCAAG [SSTheo B #16]	224

Same assay, conditions: Eterna round: R107; input ligand: theophylline 20 uM

Sequence	apparent KD of MS2 coat protein [nM]
UGUCAGCGAAAGUUGACAUGCAGUGCCGGUCGAGGACCGGUACGGCCGCCACUCGAUCUCUCGUACAUGAGGAUCACCCAUGUCG [SS Tryp A #19]	16.6
AGUAUCAGUGGAAGGAGCGUCGCGACUGCUACAUGAGGAUCACCCAUGUCGCCUUGAGCGCGACAGGUAGGUCGCCACGGUAGGC [SS-ArgB1]	68.8
AAUAAUAAGAAUAACGUACCAGGUGAUCAACGAGGACCGGUACGGCCGCCACUCGAAACAUGAGGAUCACCCAUGUAAUAACAAU [|T'-M'-Trp-Ms2|_Design 2_OL]	107
AAAUAAAUACAUGAGGAUCACCCAUGUGAAGGAGCGGCCGUUAGGCCAGGUAGGUCGCACAUGAAAGGGAAGCGAAAGAAAUAAU [MAT - Exclusion Arginine A - Mod of Eli - D7]	25.9
UGGUACUAGGCGGCCGCCACUGGGUGAUACAUGAGGAUCACCCAUGUUUAAUGCCGAGAGGCAACUAGGACCGGGCCUAGUACAU	339
GUCCUAAGGUCGGCCGCCACUGUAGAGUGUGAGCCAUCACAUGAGGAUCACCCAUGUUGUUGCUAUAGGACCGGGAUUGUAGGAC [#22 Exclusion Tryptophan B]	15.5
UGGAGUAGGACGGCCGCCACUAUACAAUGUGUAUACAUGAGGAUCACCCAUGUAAUCCUCGGAGAUAGGACCGGGUCAAGUUGUG [X-tryptB-ms2@35]	85.4
CCUCAAUCGUCGGCCGCCACUGAAUCAUGCGGAUACAUGAGGAUCACCCAUGUGGGUGUGGUACGCAGGACCGGGACAAGACCCG [#14 Same State - Tryptophan B]	337
GAGACAUGAGGAUCACCCAUGUUAGAUGAUACCAGUUAGAGAAGGAGCCCUUGGCAGCGUAAAUCUAGAGCCUAUGACGACAUGU [ss-theoA-1]	15.8
ACAUGAGGAUCACCCAUGUGCCGUCUUGAUACCAGACCCGAAGUAGUCCCUUGGCAGCAACUACGUGACGGUCGCGCAUGUGUAG [kaomullin]	30.3
GAUACUAUGAAAGUAGUAUCUACGUGUUGACGAGGACCGGUACGGCCGCCACUCGACAUGAGGAUCACCCAUGUAUAGAAUAUGU [TrypA_2]	39.2
ACAUGAGGAUCACCCAUGUCACGGCACGAUACCAGCUGAUCCGGUGGCCCUUGGCAGCGUGACGUUUGGUCCCGCGGAUCACACG [semullin]	101
UAACAUGAGGAUCACCCAUGUUUAGAUGAACGAGGACCGGUACGGCCGCCACUCGAUAAGUGGCAAGAACGAGGGAUUGUAUGCU [Same State Trp A GF3]	22.6
AAGGUGAUCCGUGAUACCAGCUCAACAUGAGGAUCACCCAUGUAACGGACGAAAGUCCGGAGCCCUUGGCAGCACGGUAAUAAUA [(M)'-(Theo1)-(Ms2)-(Theo2)-(M'')_Design2b]	15.1
